From patent US20200317768A1 (published 2020)
Residue numbers refer to the chain shown, from its start.

Key:
Test in all cases: SPR (Biacore), KD of SG1 / KD of variant;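 further: relative to parent M103205H795-SG1 carrying the SG1 human heavy chain constant region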
[1] = target: T1, cynomolgus monkey FcγRIIa1 extracellular domain, C-terminal His-tag (cynomolgus monkey)
T1 construct: also called cyno FcγRIIa1; cynoFcgRIIa1; not shown: His-tag added to C-terminus
T1 chain: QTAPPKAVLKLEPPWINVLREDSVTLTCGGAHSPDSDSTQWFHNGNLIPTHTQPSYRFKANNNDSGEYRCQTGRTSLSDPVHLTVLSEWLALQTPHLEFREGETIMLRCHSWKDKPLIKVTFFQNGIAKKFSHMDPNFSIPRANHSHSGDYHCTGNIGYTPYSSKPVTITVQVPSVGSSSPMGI

[2] = target: T2, cynomolgus monkey FcγRIIa2 extracellular domain, C-terminal His-tag (cynomolgus monkey)
T2 construct: also called cyno FcγRIIa2; cynoFcgRIIa2; not shown: His-tag added to C-terminus
T2 chain: T1 chain with P95T, T121A, I127K, A128S, K130N, D135N, R142Q

[3] = target: T3, cynomolgus monkey FcγRIIa3 extracellular domain, C-terminal His-tag (cynomolgus monkey)
T3 construct: also called cyno FcγRIIa3; cynoFcgRIIa3; not shown: His-tag added to C-terminus
T3 chain: T1 chain with P95T, T121A, A128S, H133P, D135N

[4] = target: T4, cynomolgus monkey FcγRIIb extracellular domain, C-terminal His-tag (cynomolgus monkey)
T4 construct: also called cyno FcγRIIb; cynoFcγRIIb; not shown: His-tag added to C-terminus
T4 chain: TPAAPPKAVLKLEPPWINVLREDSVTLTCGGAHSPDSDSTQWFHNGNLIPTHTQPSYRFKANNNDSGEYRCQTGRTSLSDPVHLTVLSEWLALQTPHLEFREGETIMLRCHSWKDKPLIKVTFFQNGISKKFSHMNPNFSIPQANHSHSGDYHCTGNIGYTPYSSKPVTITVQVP

[5] = target: T5, human FcγRIIaH extracellular domain, C-terminal His-tag (human, UniProt P12318 34-217)
T5 construct: also called human FcγRIIa (type H); FcgRIIaH; not shown: His-tag added to C-terminus
T5 sequence: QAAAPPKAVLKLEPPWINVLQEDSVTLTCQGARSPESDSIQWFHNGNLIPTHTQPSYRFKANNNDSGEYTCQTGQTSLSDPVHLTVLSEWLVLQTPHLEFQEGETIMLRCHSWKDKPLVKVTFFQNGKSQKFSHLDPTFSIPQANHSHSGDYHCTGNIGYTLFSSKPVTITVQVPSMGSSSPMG

[6] = target: T6, human FcγRIIaR extracellular domain, C-terminal His-tag (human, UniProt P12318 34-217)
T6 construct: also called human FcγRIIa (type R); FcgRIIaR; not shown: His-tag added to C-terminus
T6 chain: T5 sequence with H134R

[7] = target: T7, human FcγRIIb extracellular domain, C-terminal His-tag (human, UniProt P31994 43-217)
T7 construct: also called FcgRIIb (human); not shown: His-tag added to C-terminus
T7 sequence: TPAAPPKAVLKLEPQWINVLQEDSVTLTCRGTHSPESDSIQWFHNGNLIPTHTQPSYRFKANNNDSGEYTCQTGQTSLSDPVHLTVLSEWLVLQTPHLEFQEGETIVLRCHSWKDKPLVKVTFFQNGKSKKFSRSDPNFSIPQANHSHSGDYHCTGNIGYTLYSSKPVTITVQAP

[8] = target: T8, human FcγRIIIaV extracellular domain, C-terminal His-tag (human, UniProt P08637 17-208)
T8 construct: also called FcgRIIIaV; not shown: His-tag added to C-terminus
T8 sequence (P08637 17-208 F176V): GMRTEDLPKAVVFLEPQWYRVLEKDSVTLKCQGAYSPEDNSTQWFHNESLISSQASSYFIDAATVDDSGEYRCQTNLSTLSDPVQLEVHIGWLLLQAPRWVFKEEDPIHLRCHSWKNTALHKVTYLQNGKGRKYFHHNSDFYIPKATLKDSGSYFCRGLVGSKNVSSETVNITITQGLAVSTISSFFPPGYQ

B1: M103205H795-MY321/M103202L889-SK1 (antibody, human IgG1, kappa)
heavy: QVTLKESGPVLVKPTETLTLTCTVSGIDLSHDDISWVRQAPGKGLEWVGIISYAGSTYYASWAKGRLTISKDTSKNQVVLTMTNMDPVDTATYYCARGVPAYSHGGDLWGQGTLVTVSSASTKGPSVFPLAPSSKSTSGGTAALGCLVKDYFPEPVTVSWNSGALTSGVHTFPAVLQSSGLYSLSSVVTVPSSSLGTQTYICNVNHKPSNTKVDKKVEPKSCDKTHTCPPCPAPELLHGPSVFLFPPKPKDTLMISRTPEVTCVVVDVSDEDPEVKFNWYVDGVEVHNAKTKPREEQYNSTYRVVSVLTVLHQDWLNGKEYKCKVSNKALPKPIEKTISKAKGQPREPQVYTLPPSREEMTKNQVSLTCLVKGFYPSDIAVEWESNGQPENNYKTTPMVLDSDGSFFLYSKLTVDKSRWQQGNVFSCSVMHEALHNHYTQKSLSLSP
light: DIVMTQSPATLSLSPGERATLSCTSSQSVYHANWLSWFQQKPGQPPKLLIYWASTLAYGVPSRFSGSGSGTDFTLTISSLQPEDAATYYCAGGYGGGRYAFGQGTKVEIKRTVAAPSVFIFPPSDEQLKSGTASVVCLLNNFYPREAKVQWKVDNALQSGNSQESVTEQDSKDSTYSLSSTLTLSKADYEKHKVYACEVTHQGLSSPVTKSFNRGEC
KD fold (SG1 = 1) [1]: 1.4 fold
KD fold (SG1 = 1) [2]: 2.3 fold
KD fold (SG1 = 1) [3]: 3.9 fold
KD fold (SG1 = 1) [4]: 2.8 fold
KD fold (SG1 = 1) [5]: 3.7 fold
KD fold (SG1 = 1) [6]: 2.9 fold
KD fold (SG1 = 1) [7]: 1.8 fold
KD fold (SG1 = 1) [8]: 0.74 fold
